Each block holds one substance with its values, some of them ahead of it.
Columns and labels:
Cx36 E241A (human) = Cx36 E241A (human) (UniProt Q9UKL4)
Cx36 E230K-E239K (human) = Cx36 E230K-E239K (human) (UniProt Q9UKL4)
Cx31.3, human (human) = Cx31.3, human (human) (UniProt Q8NFK1)
Cx36 K238E-E230K (human) = Cx36 K238E-E230K (human) (UniProt Q9UKL4)
Cx30, human (human) = Cx30, human (human) (UniProt O95452)
Cx45, human (human) = Cx45, human (human) (UniProt P36383)
Cx36 E230K (human) = Cx36 E230K (human) (UniProt Q9UKL4)
Cx36 K238E (human) = Cx36 K238E (human) (UniProt Q9UKL4)
Cx36 K238E-E239K (human) = Cx36 K238E-E239K (human) (UniProt Q9UKL4)
Cx36 K238Q (human) = Cx36 K238Q (human) (UniProt Q9UKL4)
Cx32 (human) = Cx32 (human) (UniProt P08034)
Cx36 E241K (human) = Cx36 E241K (human) (UniProt Q9UKL4)
[1] = biological target: Cx36 E230K-E239K-E241K (human) (UniProt Q9UKL4)
Cx43, human (human) = Cx43, human (human) (UniProt P17302)
Cx26, human (human) = Cx26, human (human) (UniProt P29033)
Cx47, human (human) = biological target: T1, Cx47, human (human) (UniProt Q5T442)
T1 sequence: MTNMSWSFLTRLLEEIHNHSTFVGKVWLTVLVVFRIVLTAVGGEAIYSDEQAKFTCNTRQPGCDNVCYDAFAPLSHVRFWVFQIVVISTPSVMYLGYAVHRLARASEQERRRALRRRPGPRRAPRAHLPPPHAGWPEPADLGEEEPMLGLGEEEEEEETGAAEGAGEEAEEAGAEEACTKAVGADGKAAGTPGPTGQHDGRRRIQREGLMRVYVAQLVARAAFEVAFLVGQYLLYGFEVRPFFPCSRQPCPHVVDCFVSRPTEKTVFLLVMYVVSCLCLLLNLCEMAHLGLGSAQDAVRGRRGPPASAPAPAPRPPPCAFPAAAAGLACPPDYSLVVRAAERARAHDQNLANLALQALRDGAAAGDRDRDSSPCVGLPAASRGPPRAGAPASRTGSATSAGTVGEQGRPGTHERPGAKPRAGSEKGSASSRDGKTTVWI

[2] = biological target: Connexin36 (Cx36), human, wildtype (human) (UniProt Q9UKL4)
Cx36 K238A (human) = Cx36 K238A (human) (UniProt Q9UKL4)
Cx36 E239K (human) = Cx36 E239K (human) (UniProt Q9UKL4)
[3] = biological target: Cx36 K238E-E230K-E239K-E241K (human) (UniProt Q9UKL4)
[4] = biological target: Cx36 K238E-E230K-E239K (human) (UniProt Q9UKL4)

Chain of Connexin36 (Cx36), human, wildtype (Q9UKL4 whole entry): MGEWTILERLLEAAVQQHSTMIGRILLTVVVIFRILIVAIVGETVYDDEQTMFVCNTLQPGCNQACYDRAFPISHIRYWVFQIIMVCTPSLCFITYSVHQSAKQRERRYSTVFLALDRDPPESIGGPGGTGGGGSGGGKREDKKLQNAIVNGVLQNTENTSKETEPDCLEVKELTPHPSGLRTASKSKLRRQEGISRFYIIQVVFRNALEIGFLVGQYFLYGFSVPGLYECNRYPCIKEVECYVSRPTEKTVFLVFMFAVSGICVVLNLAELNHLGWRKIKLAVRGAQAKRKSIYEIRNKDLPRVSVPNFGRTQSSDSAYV
Chain of Cx45, human (human) (P36383 whole entry): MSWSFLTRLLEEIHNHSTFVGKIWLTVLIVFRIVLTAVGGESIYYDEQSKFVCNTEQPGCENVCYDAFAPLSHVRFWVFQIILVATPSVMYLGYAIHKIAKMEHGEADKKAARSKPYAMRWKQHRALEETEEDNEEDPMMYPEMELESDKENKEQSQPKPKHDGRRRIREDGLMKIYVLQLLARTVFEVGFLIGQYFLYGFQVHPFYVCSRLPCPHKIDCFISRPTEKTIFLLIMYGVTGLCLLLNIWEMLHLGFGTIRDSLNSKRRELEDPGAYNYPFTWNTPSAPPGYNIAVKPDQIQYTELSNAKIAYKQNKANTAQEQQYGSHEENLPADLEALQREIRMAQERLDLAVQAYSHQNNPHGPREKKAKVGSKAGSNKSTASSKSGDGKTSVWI
Chain of Cx45, human (P36383 whole entry): as above
Chain of Cx43, human (human) (P17302 whole entry): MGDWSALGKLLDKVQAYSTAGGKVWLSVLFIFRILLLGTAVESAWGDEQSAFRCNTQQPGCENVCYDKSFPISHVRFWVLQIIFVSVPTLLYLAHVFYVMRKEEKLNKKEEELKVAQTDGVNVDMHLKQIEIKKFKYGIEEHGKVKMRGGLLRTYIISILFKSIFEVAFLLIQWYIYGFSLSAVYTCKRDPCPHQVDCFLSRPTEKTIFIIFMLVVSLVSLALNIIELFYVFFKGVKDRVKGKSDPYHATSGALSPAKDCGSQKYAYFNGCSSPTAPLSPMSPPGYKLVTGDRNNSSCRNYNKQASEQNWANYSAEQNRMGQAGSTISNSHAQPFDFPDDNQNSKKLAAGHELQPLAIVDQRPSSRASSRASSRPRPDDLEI
Chain of Cx43, human (P17302 whole entry): as above
Chain of Cx30, human (human) (O95452 whole entry): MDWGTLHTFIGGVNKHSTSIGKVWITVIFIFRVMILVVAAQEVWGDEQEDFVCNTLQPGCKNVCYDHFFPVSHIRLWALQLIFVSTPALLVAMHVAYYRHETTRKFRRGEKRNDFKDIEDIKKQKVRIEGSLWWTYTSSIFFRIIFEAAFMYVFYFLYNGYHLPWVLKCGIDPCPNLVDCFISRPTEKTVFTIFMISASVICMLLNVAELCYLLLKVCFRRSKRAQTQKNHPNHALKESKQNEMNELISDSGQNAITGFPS
Chain of Cx30, human (O95452 whole entry): as above
Chain of Cx31.3, human (Q8NFK1 whole entry): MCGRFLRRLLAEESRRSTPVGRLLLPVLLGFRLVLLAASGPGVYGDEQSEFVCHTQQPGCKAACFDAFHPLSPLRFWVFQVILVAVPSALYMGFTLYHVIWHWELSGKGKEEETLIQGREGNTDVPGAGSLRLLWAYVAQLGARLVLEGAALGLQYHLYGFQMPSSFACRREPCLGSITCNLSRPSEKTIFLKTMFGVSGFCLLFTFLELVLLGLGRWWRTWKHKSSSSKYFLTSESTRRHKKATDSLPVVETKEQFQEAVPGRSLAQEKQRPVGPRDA
Chain of Cx31.3, human (human) (Q8NFK1 whole entry): as above
Chain of Cx32 (human) (P08034 whole entry): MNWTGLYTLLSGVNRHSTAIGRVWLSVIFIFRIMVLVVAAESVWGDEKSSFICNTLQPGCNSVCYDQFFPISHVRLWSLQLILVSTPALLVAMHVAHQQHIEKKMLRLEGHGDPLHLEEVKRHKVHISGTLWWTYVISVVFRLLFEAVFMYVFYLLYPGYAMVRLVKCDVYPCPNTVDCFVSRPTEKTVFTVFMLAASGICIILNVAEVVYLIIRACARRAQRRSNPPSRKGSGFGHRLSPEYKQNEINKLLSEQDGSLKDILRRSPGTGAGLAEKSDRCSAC
Chain of Cx32 (P08034 whole entry): as above

median junctional conductance (Gj), dual whole-cell patch clamp of DKO HEK293 cell pairs, homotypic; IQR 0–0; 17 pairs (Cx31.3, human (human)): 0 nS
Substance: Cx31.3, human (from UniProt Q8NFK1 1-279) (natural protein)

median junctional conductance (Gj), dual whole-cell patch clamp of DKO HEK293 cell pairs, homotypic; IQR 0.5–19.6; 29 pairs (Cx45, human (human)): 6.8 nS
Substance: Cx45, human (from UniProt P36383 1-396) (natural protein)

median junctional conductance (Gj), dual whole-cell patch clamp of DKO HEK293 cell pairs, homotypic; IQR 0–0.14; 28 pairs (Cx36 E230K (human)): 0.01 nS | median junctional conductance (Gj), dual whole-cell patch clamp of DKO HEK293 cell pairs, heterotypic; IQR 0.05–0.22; 20 pairs (Cx36 K238E (human)): 0.1 nS | median junctional conductance (Gj), dual whole-cell patch clamp of DKO HEK293 cell pairs, heterotypic; IQR 0–0; 20 pairs (Cx36 E230K-E239K (human)): 0 nS
Substance: Cx36 E230K (from UniProt Q9UKL4 1-321) (natural protein)

median junctional conductance (Gj), dual whole-cell patch clamp of DKO HEK293 cell pairs, homotypic; IQR 0–0; 15 pairs (Cx36 K238E-E239K (human)): 0 nS
Substance: Cx36 K238E-E239K (from UniProt Q9UKL4 1-321) (natural protein)

median junctional conductance (Gj), dual whole-cell patch clamp of DKO HEK293 cell pairs, homotypic; IQR 0–0; 16 pairs (Cx36 K238Q (human)): 0 nS
Substance: Cx36 K238Q (from UniProt Q9UKL4 1-321) (natural protein)

median junctional conductance (Gj), dual whole-cell patch clamp of DKO HEK293 cell pairs, homotypic; IQR 0–0; 23 pairs (Cx36 K238A (human)): 0 nS
Substance: Cx36 K238A (from UniProt Q9UKL4 1-321) (natural protein)

The remaining lines, values behind:

Substance: Cx36 E241A (from UniProt Q9UKL4 1-321) (natural protein)
median junctional conductance (Gj), dual whole-cell patch clamp of DKO HEK293 cell pairs, homotypic; IQR 0.03–0.19; 18 pairs (Cx36 E241A (human)): 0.09 nS | median junctional conductance (Gj), dual whole-cell patch clamp of DKO HEK293 cell pairs, heterotypic; IQR 0–0; 16 pairs (Cx36 E230K-E239K (human)): 0 nS

Substance: Cx36 E230K-E239K (from UniProt Q9UKL4 1-321) (natural protein)
median junctional conductance (Gj), dual whole-cell patch clamp of DKO HEK293 cell pairs, homotypic; IQR 0–0; 20 pairs (Cx36 E230K-E239K (human)): 0 nS | median junctional conductance (Gj), dual whole-cell patch clamp of DKO HEK293 cell pairs, heterotypic; IQR 0–0.18; 15 pairs (Cx36 K238E-E230K (human)): 0.09 nS

Substance: Cx30, human (from UniProt O95452 1-261) (natural protein)
median junctional conductance (Gj), dual whole-cell patch clamp of DKO HEK293 cell pairs, homotypic; IQR 0.43–21.28; 16 pairs (Cx30, human (human)): 6.55 nS

Substance: Cx32 (from UniProt P08034 1-283) (natural protein)
median junctional conductance (Gj), dual whole-cell patch clamp of DKO HEK293 cell pairs, homotypic; IQR 0–16.23; 17 pairs (Cx32 (human)): 0.85 nS

Substance: Cx36 E241K (from UniProt Q9UKL4 1-321) (natural protein)
median junctional conductance (Gj), dual whole-cell patch clamp of DKO HEK293 cell pairs, homotypic; IQR 0–0; 25 pairs (Cx36 E241K (human)): 0 nS

Substance: Cx36 K238E (from UniProt Q9UKL4 1-321) (natural protein)
median junctional conductance (Gj), dual whole-cell patch clamp of DKO HEK293 cell pairs, homotypic; IQR 0–0; 19 pairs (Cx36 K238E (human)): 0 nS | median junctional conductance (Gj), dual whole-cell patch clamp of DKO HEK293 cell pairs, heterotypic; IQR 0–0; 19 pairs (Cx36 E241K (human)): 0 nS | median junctional conductance (Gj), dual whole-cell patch clamp of DKO HEK293 cell pairs, heterotypic; IQR 0–0; 18 pairs [1]: 0 nS | median junctional conductance (Gj), dual whole-cell patch clamp of DKO HEK293 cell pairs, heterotypic; IQR 0–0; 15 pairs (Cx36 K238E-E230K (human)): 0 nS | median junctional conductance (Gj), dual whole-cell patch clamp of DKO HEK293 cell pairs, heterotypic; IQR 0–0; 15 pairs (Cx36 K238E-E239K (human)): 0 nS

Substance: Connexin36 (Cx36), human, wildtype (from UniProt Q9UKL4 1-321) (natural protein)
median junctional conductance (Gj), dual whole-cell patch clamp of DKO HEK293 cell pairs, heterotypic; IQR 0–0; 25 pairs (Cx43, human (human)): 0 nS | median junctional conductance (Gj), dual whole-cell patch clamp of DKO HEK293 cell pairs, heterotypic; IQR 0–0; 19 pairs (Cx26, human (human)): 0 nS | median junctional conductance (Gj), dual whole-cell patch clamp of DKO HEK293 cell pairs, heterotypic; IQR 0–0; 15 pairs (Cx30, human (human)): 0 nS | median junctional conductance (Gj), dual whole-cell patch clamp of DKO HEK293 cell pairs, heterotypic; IQR 0–0; 15 pairs (Cx31.3, human (human)): 0 nS | median junctional conductance (Gj), dual whole-cell patch clamp of DKO HEK293 cell pairs, heterotypic; IQR 0–0; 21 pairs (Cx47, human (human)): 0 nS | median junctional conductance (Gj), dual whole-cell patch clamp of DKO HEK293 cell pairs, heterotypic; IQR 0–0; 26 pairs (Cx45, human (human)): 0 nS | median junctional conductance (Gj), dual whole-cell patch clamp of DKO HEK293 cell pairs, heterotypic; IQR 0–0; 19 pairs (Cx32 (human)): 0 nS | median junctional conductance (Gj), dual whole-cell patch clamp of DKO HEK293 cell pairs, homotypic; IQR 0.02–0.19; 38 pairs [2]: 0.1 nS | median junctional conductance (Gj), dual whole-cell patch clamp of DKO HEK293 cell pairs, heterotypic; IQR 0.01–0.31; 16 pairs (Cx36 K238Q (human)): 0.13 nS | median junctional conductance (Gj), dual whole-cell patch clamp of DKO HEK293 cell pairs, heterotypic; IQR 0.04–0.22; 15 pairs (Cx36 E230K (human)): 0.14 nS | median junctional conductance (Gj), dual whole-cell patch clamp of DKO HEK293 cell pairs, heterotypic; IQR 0.11–0.41; 19 pairs (Cx36 E230K-E239K (human)): 0.22 nS | median junctional conductance (Gj), dual whole-cell patch clamp of DKO HEK293 cell pairs, heterotypic; IQR 0.05–0.24; 17 pairs (Cx36 K238A (human)): 0.16 nS | median junctional conductance (Gj), dual whole-cell patch clamp of DKO HEK293 cell pairs, heterotypic; IQR 0.08–0.19; 18 pairs (Cx36 E239K (human)): 0.13 nS | median junctional conductance (Gj), dual whole-cell patch clamp of DKO HEK293 cell pairs, heterotypic; IQR 0–0; 16 pairs (Cx36 K238E-E230K (human)): 0 nS | median junctional conductance (Gj), dual whole-cell patch clamp of DKO HEK293 cell pairs, heterotypic; IQR 0–0.10; 15 pairs (Cx36 K238E-E239K (human)): 0.06 nS

Substance: Cx36 K238E-E230K-E239K-E241K (from UniProt Q9UKL4 1-321) (natural protein)
median junctional conductance (Gj), dual whole-cell patch clamp of DKO HEK293 cell pairs, homotypic; IQR 0–0; 16 pairs [3]: 0 nS

Substance: Cx36 E230K-E239K-E241K (from UniProt Q9UKL4 1-321) (natural protein)
median junctional conductance (Gj), dual whole-cell patch clamp of DKO HEK293 cell pairs, homotypic; IQR 0–0; 12 pairs [1]: 0 nS

Substance: Cx43, human (from UniProt P17302 1-382) (natural protein)
median junctional conductance (Gj), dual whole-cell patch clamp of DKO HEK293 cell pairs, homotypic; IQR 0–9.93; 17 pairs (Cx43, human (human)): 0.46 nS

Substance: Cx36 K238E-E230K (from UniProt Q9UKL4 1-321) (natural protein)
median junctional conductance (Gj), dual whole-cell patch clamp of DKO HEK293 cell pairs, homotypic; IQR 0–0; 15 pairs (Cx36 K238E-E230K (human)): 0 nS

Substance: Cx36 E239K (from UniProt Q9UKL4 1-321) (natural protein)
median junctional conductance (Gj), dual whole-cell patch clamp of DKO HEK293 cell pairs, heterotypic; IQR 0.08–0.2; 23 pairs (Cx36 K238E (human)): 0.11 nS | median junctional conductance (Gj), dual whole-cell patch clamp of DKO HEK293 cell pairs, heterotypic; IQR 0–0.12; 21 pairs (Cx36 E230K-E239K (human)): 0.05 nS | median junctional conductance (Gj), dual whole-cell patch clamp of DKO HEK293 cell pairs, homotypic; IQR 0.04–0.31; 30 pairs (Cx36 E239K (human)): 0.12 nS

Substance: Cx36 K238E-E230K-E239K (from UniProt Q9UKL4 1-321) (natural protein)
median junctional conductance (Gj), dual whole-cell patch clamp of DKO HEK293 cell pairs, homotypic; IQR 0.08–0.14; 16 pairs [4]: 0.12 nS

— PMC13269782
